Target: T1, HA-Pop1p/His-Myc-Pop2p complexes (S. pombe, UniProt P87060 1-775; O14170 1-703)
T1 sequence 1: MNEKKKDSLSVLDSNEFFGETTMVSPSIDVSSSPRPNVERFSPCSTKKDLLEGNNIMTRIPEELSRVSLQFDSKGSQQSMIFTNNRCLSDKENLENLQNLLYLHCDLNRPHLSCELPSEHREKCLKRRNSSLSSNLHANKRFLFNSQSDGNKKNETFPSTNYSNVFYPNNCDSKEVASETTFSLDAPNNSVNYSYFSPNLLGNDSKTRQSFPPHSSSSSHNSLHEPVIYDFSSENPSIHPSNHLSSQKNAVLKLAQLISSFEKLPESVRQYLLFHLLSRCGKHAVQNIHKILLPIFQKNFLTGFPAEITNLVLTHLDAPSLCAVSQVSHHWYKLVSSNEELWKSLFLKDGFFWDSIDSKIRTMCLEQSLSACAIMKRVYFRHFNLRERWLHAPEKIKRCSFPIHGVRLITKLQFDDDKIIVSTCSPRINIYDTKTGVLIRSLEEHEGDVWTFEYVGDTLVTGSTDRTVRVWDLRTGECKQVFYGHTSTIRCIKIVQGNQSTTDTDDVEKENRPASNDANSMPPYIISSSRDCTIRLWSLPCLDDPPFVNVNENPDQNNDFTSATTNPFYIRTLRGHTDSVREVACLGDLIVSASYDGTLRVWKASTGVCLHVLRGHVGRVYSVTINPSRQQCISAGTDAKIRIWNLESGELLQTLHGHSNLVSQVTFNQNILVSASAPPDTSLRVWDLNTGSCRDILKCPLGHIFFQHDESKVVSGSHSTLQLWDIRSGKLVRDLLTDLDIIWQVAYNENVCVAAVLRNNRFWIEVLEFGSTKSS
T1 sequence 2: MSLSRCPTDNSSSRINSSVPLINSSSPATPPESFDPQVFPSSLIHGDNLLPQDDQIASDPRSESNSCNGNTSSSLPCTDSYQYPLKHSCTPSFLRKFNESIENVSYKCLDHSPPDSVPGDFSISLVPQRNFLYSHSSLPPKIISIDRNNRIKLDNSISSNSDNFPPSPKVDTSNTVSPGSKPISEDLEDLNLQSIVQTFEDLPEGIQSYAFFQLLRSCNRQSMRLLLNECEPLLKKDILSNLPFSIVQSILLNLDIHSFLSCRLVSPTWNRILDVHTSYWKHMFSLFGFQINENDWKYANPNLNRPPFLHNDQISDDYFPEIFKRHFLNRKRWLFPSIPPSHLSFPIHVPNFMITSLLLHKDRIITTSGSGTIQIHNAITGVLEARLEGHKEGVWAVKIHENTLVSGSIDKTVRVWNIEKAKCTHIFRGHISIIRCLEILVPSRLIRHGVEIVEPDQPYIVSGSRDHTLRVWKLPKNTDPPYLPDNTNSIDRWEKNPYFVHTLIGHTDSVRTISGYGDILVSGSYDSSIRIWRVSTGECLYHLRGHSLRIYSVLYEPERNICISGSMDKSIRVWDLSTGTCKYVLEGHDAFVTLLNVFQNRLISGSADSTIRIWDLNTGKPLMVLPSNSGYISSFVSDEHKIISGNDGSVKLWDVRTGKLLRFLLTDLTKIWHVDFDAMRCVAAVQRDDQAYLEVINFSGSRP
Assay: pull-down

B1: bacterially expressed, phosphorylated Rum1p (natural protein)
chain: MEPSTPPMRGLCTPSTPESPGSFKGVIDASLEGNSSIMIDEIPESDLPAPQVSTFPPTPAKTPKKQLLPNLMLQDRSNSLERCMEEDREHNPFLSSSDNQLLSRKKRKPTPPPSDGLYYVFRGKRIKKSFRPGTDLSTFKPKLLFADSAPSSSSDNPTSSVDLNDYSQIGILPPNLNSIGNKMFSLKSRVPSSSSGSFVAPPPQMRLPAYSSPQKSRSNTKDENRHNLLR
modifications: phosphorylated by Cdc2p/Cig1p complexes with radiolabeled ATP; residues not stated for this preparation
B1: binds.
